Data set [1] relates to HeLa Kyoto. As to the kind of experiment: solubility change mitosis vs G1/S (difference of NP-40 vs SDS log2 ratios) (log2 ratio difference); higher = more soluble in mitosis.
The subject of data set [2] is HeLa Kyoto. As to the kind of experiment: solubility in G1/S (NP-40 vs SDS abundance) (log2 ratio); higher = more soluble. The settings on record: cell cycle stage: G1/S.
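Throughout, for solubility change mitosis vs G1/S (difference of NP-40 vs SDS log2 ratios): synchronized HeLa Kyoto cells (double thymidine block for G1/S, nocodazole release for mitosis), protein amounts in NP-40 versus SDS lysates quantified by mass spectrometry, three biological replicates.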
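Throughout, for solubility in G1/S (NP-40 vs SDS abundance): HeLa Kyoto cells arrested at G1/S by double thymidine block, proteins quantified by TMT10plex mass spectrometry in mild NP-40 versus SDS extracts, three biological replicates.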

“MVVLRSSLELHNHSAASATGSLDLSSDFLSLEHIGRRRLRSAGAAQKKPAATTAKAGDGSSVKEVETYHRTRALRSLRKDAQNSSDSSFEKNVEITEQLANGRHFTRQLARQQADKKKEEHREDKVIPVTRSLRARNIVQSTEHLHEDNGDVEVRRSCRIRSRYSGVNQSMLFDKLITNTAEAVLQKMDDMKKMRRQRMRELEDLGVFNETEESNLNMYTRGKQKDIQRTDEETTDNQEGSVESSEEGEDQEHEDDGEDEDDEDDDDDDDDDDDDDDEDDEDEEDGEEENQKRYYLRQRKATVYYQAPLEKPRHQRKPNIFYSGPASPARPRYRLSSAGPRSPYCKRMNRRRHAIHSSDSTSSSSSEDEQHFERRRKRSRNRAINRCLPLNFRKDELKGIYKDRMKIGASLADVDPMQLDSSVRFDSVGGLSNHIAALKEMVVFPLLYPEVFEKFKIQPPRGCLFYGPPGTGKTLVARALANECSQGDKRVAFFMRKGADCLSKWVGESERQLRLLFDQAYQMRPSIIFFDEIDGLAPVRSSRQDQIHSSIVSTLLALMDGLDSRGEIVVIGATNRLDSIDPALRRPGRFDREFLFSLPDKEARKEILKIHTRDWNPKPLDTFLEELAENCVGYCGADIKSICAEAALCALRRRYPQIYTTSEKLQLDLSSINISAKDFEVAMQKMIPASQRAVTSPGQALSTVVKPLLQNTVDKILEALQRVFPHAEFRTNKTLDSDISCPLLESDLAYSDDDVPSVYENGLSQKSSHKAKDNFNFLHLNRNACYQPMSFRPRILIVGEPGFGQGSHLAPAVIHALEKFTVYTLDIPVLFGVSTTSPEETCAQVIREAKRTAPSIVYVPHIHVWWEIVGPTLKATFTTLLQNIPSFAPVLLLATSDKPHSALPEEVQELFIRDYGEIFNVQLPDKEERTKFFEDLILKQAAKPPISKKKAVLQALEVLPVAPPPEPRSLTAEEVKRLEEQEEDTFRELRIFLRNVTHRLAIDKRFRVFTKPVDPDEVPDYVTVIKQPMDLSSVISKIDLHKYLTVKDYLRDIDLICSNALEYNPDRDPGDRLIRHRACALRDTAYAIIKEELDEDFEQLCEEIQESRKKRGCSSSKYAPSYYHVMPKQNSTLVGDKRSDPEQNEKLKTPSTPVACSTPAQLKRKIRKKSNWYLGTIKKRRKISQAKDDSQNAIDHKIESDTEETQDTSVDHNETGNTGESSVEENEKQQNASESKLELRNNSNTCNIENELEDSRKTTACTELRDKIACNGDASSSQIIHISDENEGKEMCVLRMTRARRSQVEQQQLITVEKALAILSQPTPSLVVDHERLKNLLKTVVKKSQNYNIFQLENLYAVISQCIYRHRKDHDKTSLIQKMEQEVENFSCSR [ATAD2]”: the “solubility change mitosis (log2)” value in the data set on HeLa Kyoto [1] stood at 2.36. The “solubility in G1/S (log2)” value with HeLa Kyoto [2] was -3.07.

For “MELAQEARELGCWAVEEMGVPVAARAPESTLRRLCLGQGADIWAYILQHVHSQRTVKKIRGNLLWYGHQDSPQVRRKLELEAAVTRLRAEIQELDQSLELMERDTEAQDTAMEQARQHTQDTQRRALLLRAQAGAMRRQQHTLRDPMQRLQNQLRRLQDMERKAKVDVTFGSLTSAALGLEPVVLRDVRTACTLRAQFLQNLLLPQAKRGSLPTPHDDHFGTSYQQWLSSVETLLTNHPPGHVLAALEHLAAEREAEIRSLCSGDGLGDTEISRPQAPDQSDSSQTLPSMVHLIQEGWRTVGVLVSQRSTLLKERQVLTQRLQGLVEEVERRVLGSSERQVLILGLRRCCLWTELKALHDQSQELQDAAGHRQLLLRELQAKQQRILHWRQLVEETQEQVRLLIKGNSASKTRLCRSPGEVLALVQRKVVPTFEAVAPQSRELLRCLEEEVRHLPHILLGTLLRHRPGELKPLPTVLPSIHQLHPASPRGSSFIALSHKLGLPPGKASELLLPAAASLRQDLLLLQDQRSLWCWDLLHMKTSLPPGLPTQELLQIQASQEKQQKENLGQALKRLEKLLKQALERIPELQGIVGDWWEQPGQAALSEELCQGLSLPQWRLRWVQAQGALQKLCS [HAUS5]”, the “solubility change mitosis (log2)” value with HeLa Kyoto [1] was -0.0591. In the data set on HeLa Kyoto [2], the “solubility in G1/S (log2)” value amounted to 0.307.

Take “MAAELVEAKNMVMSFRVSDLQMLLGFVGRSKSGLKHELVTRALQLVQFDCSPELFKKIKELYETRYAKKNSEPAPQPHRPLDPLTMHSTYDRAGAVPRTPLAGPNIDYPVLYGKYLNGLGRLPAKTLKPEVRLVKLPFFNMLDELLKPTELVPQNNEKLQESPCIFALTPRQVELIRNSRELQPGVKAVQVVLRICYSDTSCPQEDQYPPNIAVKVNHSYCSVPGYYPSNKPGVEPKRPCRPINLTHLMYLSSATNRITVTWGNYGKSYSVALYLVRQLTSSELLQRLKTIGVKHPELCKALVKEKLRLDPDSEIATTGVRVSLICPLVKMRLSVPCRAETCAHLQCFDAVFYLQMNEKKPTWMCPVCDKPAPYDQLIIDGLLSKILSECEDADEIEYLVDGSWCPIRAEKERSCSPQGAILVLGPSDANGLLPAPSVNGSGALGSTGGGGPVGSMENGKPGADVVDLTLDSSSSSEDEEEEEEEEEDEDEEGPRPKRRCPFQKGLVPAC [PIAS4]”: the “solubility change mitosis (log2)” value in the data set on HeLa Kyoto [1] is -0.116. In the data set on HeLa Kyoto [2], the “solubility in G1/S (log2)” value is 0.228.

In the case of “MWCLHCNSERTQSLLELELDSGVEGEAPSSETGTSLDSPSAYPQGPLVPGSSLSPDHYEHTSVGAYGLYSGPPGQQQRTRRPKLQHSTSILRKQAEEEAIKRSRSLSESYELSSDLQDKQVEMLERKYGGRLVTRHAARTIQTAFRQYQMNKNFERLRSSMSENRMSRRIVLSNMRMQFSFEGPEKVHSSYFEGKQVSVTNDGSQLGALVSPECGDLSEPTTLKSPAPSSDFADAITELEDAFSRQVKSLAESIDDALNCRSLHTEEAPALDAARARDTEPQTALHGMDHRKLDEMTASYSDVTLYIDEEELSPPLPLSQAGDRPSSTESDLRLRAGGAAPDYWALAHKEDKADTDTSCRSTPSLERQEQRLRVEHLPLLTIEPPSDSSVDLSDRSERGSLKRQSAYERSLGGQQGSPKHGPHSGAPKSLPREEPELRPRPPRPLDSHLAINGSANRQSKSESDYSDGDNDSINSTSNSNDTINCSSESSSRDSLREQTLSKQTYHKEARNSWDSPAFSNDVIRKRHYRIGLNLFNKKPEKGVQYLIERGFVPDTPVGVAHFLLQRKGLSRQMIGEFLGNRQKQFNRDVLDCVVDEMDFSTMELDEALRKFQAHIRVQGEAQKVERLIEAFSQRYCICNPGVVRQFRNPDTIFILAFAIILLNTDMYSPNVKPERKMKLEDFIKNLRGVDDGEDIPREMLMGIYERIRKRELKTNEDHVSQVQKVEKLIVGKKPIGSLHPGLGCVLSLPHRRLVCYCRLFEVPDPNKPQKLGLHQREIFLFNDLLVVTKIFQKKKNSVTYSFRQSFSLYGMQVLLFENQYYPNGIRLTSSVPGADIKVLINFNAPNPQDRKKFTDDLRESIAEVQEMEKHRIESELEKQKGVVRPSMSQCSSLKKESGNGTLSRACLDDSYASGEGLKRSALSSSLRDLSEAGKRGRRSSAGSLESNVEFQPFEPLQPSVLCS [IQSEC1]”, in the data set on HeLa Kyoto [1], the “solubility change mitosis (log2)” value is -0.0422. Besides, the “solubility in G1/S (log2)” value in the data set with HeLa Kyoto [2] is -0.0654.

As for “MHQTLCLNPESLKMSACSDFVEHIWKPGSCKNCFCLRSDHQLVAGPPQPRAGSLPPPPRLPPRPENCRLEDEGVNSSPYSKPTIAVKPTMMSSEASDVWTEANLSAEVSQVIWRRAPGKLPLPKQEDAPVVYLGSFRGVQKPAGPSTSPDGNSRCPPAYTMVGLHNLEPRGERNIAFHPVSFPEEKAVHKEKPSFPYQDRPSTQESFRQKLAAFAGTTSGCHQGPGPLRESLPSEDDSDQRCSPSGDSEGGEYCSILDCCPGSPVAKAASQTAGSRGRHGGRDCSPTCWEQGKCSGPAEQEKRGPSFPKECCSQGPTAHPSCLGPKKLSLTSEAAISSDGLSCGSGSGSGSGASSPFVPHLESDYCSLMKEPAPEKQQDPGCPGVTPSRCLGLTGEPQPPAHPREATQPEPIYAESTKRKKAAPVPSKSQAKIEHAAAAQGQGQVCTGNAWAQKAASGWGRDSPDPTPQVSATITVMAAHPEEDHRTIYLSSPDSAVGVQWPRGPVSQNSEVGEEETSAGQGLSSRESHAHSASESKPKERPAIPPKLSKSSPVGSPVSPSAGGPPVSPLADLSDGSSGGSSIGPQPPSQGPADPAPSCRTNGVAISDPSRCPQPAASSASEQRRPRFQAGTWSRQCRIEEEEEVEQELLSHSWGRETKNGPTDHSNSTTWHRLHPTDGSSGQNSKVGTGMSKSASFAFEFPKDRSGIETFSPPPPPPKSRHLLKMNKSSSDLEKVSQGSAESLSPSFRGVHVSFTTGSTDSLASDSRTCSDGGPSSELAHSPTNSGKKLFAPVPFPSGSTEDVSPSGPQQPPPLPQKKIVSRAASSPDGFFWTQGSPKPGTASPKLNLSHSETNVHDESHFSYSLSPGNRHHPVFSSSDPLEKAFKGSGHWLPAAGLAGNRGGCGSPGLQCKGAPSASSSQLSVSSQASTGSTQLQLHGLLSNISSKEGTYAKLGGLYTQSLARLVAKCEDLFMGGQKKELHFNENNWSLFKLTCNKPCCDSGDAIYYCATCSEDPGSTYAVKICKAPEPKTVSYCSPSVPVHFNIQQDCGHFVASVPSSMLSSPDAPKDPVPALPTHPPAQEQDCVVVITREVPHQTASDFVRDSAASHQAEPEAYERRVCFLLLQLCNGLEHLKEHGIIHRDLCLENLLLVHCTLQAGPGPAPAPAPAPAPAAAAPPCSSAAPPAGGTLSPAAGPASPEGPREKQLPRLIISNFLKAKQKPGGTPNLQQKKSQARLAPEIVSASQYRKFDEFQTGILIYELLHQPNPFEVRAQLRERDYRQEDLPPLPALSLYSPGLQQLAHLLLEADPIKRIRIGEAKRVLQCLLWGPRRELVQQPGTSEEALCGTLHNWIDMKRALMMMKFAEKAVDRRRGVELEDWLCCQYLASAEPGALLQSLKLLQLL [SGK223]”, the “solubility change mitosis (log2)” value in the data set with HeLa Kyoto [1] was -0.132. For the same sequence, in the data set with HeLa Kyoto [2], the “solubility in G1/S (log2)” value is -0.249.

As for “MCDQQQIQCRLPLQQCCVKGPSFCSSQSPFAQSQVVVQAPCEMQIVDCPASCPVQVCQVSDQAPCQSQTTQVKCQSKTKQVKGQAQCQSKTTQVKGQAASQSQTSSVQSQAPCQSEVSYVQCEASQPVQTCFVECAPVCYTETCYVECPVQNYVPCPAPQPVQMYRGRPAVCQPQGRFSTQCQYQGSYSSCGPQFQSRATCNNYTPQFQLRPSYSSCFPQYRSRTSFSPCVPQCQTQGSYGSFTEQHRSRSTSRCLPPPRRLQLFPRSCSPPRRFEPCSSSYLPLRPSEGFPNYCTPPRRSEPIYNSRCPRRPISSCSQRRGPKCRIEISSPCCPRQVPPQRCPVEIPPIRRRSQSCGPQPSWGASCPELRPHVEPRPLPSFCPPRRLDQCPESPLQRCPPPAPRPRLRPEPCISLEPRPRPLPRQLSEPCLYPEPLPALRPTPRPVPLPRPGQCEIPEPRPCLQPCEHPEPCPRPEPIPLPAPCPSPEPCRETWRSPSPCWGPNPVPYPGDLGCHESSPHRLDTEAPYCGPSSYNQGQESGAGCGPGDVFPERRGQDGHGDQGNAFAGVKGEAKSAYF [KPRP]”, the “solubility change mitosis (log2)” value in the data set on HeLa Kyoto [1] turned out to be 1.12. For the same sequence, in the data set on HeLa Kyoto [2], the “solubility in G1/S (log2)” value is -1.06.

Turning to “MATLWGGLLRLGSLLSLSCLALSVLLLAQLSDAAKNFEDVRCKCICPPYKENSGHIYNKNISQKDCDCLHVVEPMPVRGPDVEAYCLRCECKYEERSSVTIKVTIIIYLSILGLLLLYMVYLTLVEPILKRRLFGHAQLIQSDDDIGDHQPFANAHDVLARSRSRANVLNKVEYAQQRWKLQVQEQRKSVFDRHVVLS [TMEM9B]”, the “solubility change mitosis (log2)” value with HeLa Kyoto [1] is -0.12. Also, the “solubility in G1/S (log2)” value in the data set on HeLa Kyoto [2] was -0.235.

For the origin of these results see the supplement of paper PMC5998384.
